What all share (type): biochemical
Substrate in data set [1]: CC(=O)N1CCC[C@H]1C(=O)N[C@@H](CC(C)C)C(=O)NCC(=O)N[C@@H](CCc1ccccc1)C(=O)N[C@@H](Cc1ccc(O)cc1)C(=O)N[C@@H](CC(C)C)C(=O)NNC(=O)c1ccc(N/N=C/c2ccccc2S(=O)(=O)ON)nc1
The data set can be described thus: Kinetic measurements of substrate hydrolysis by active MMP-2 (radio HPLC assay). Conditions: other: active MMP-2 final concentration 10 nM, 37° C., 60 minutes, radiolabeled test substrate, pH 7.5.

Substrate in data set [2]: CC(=O)N1CCC[C@H]1C(=O)N[C@@H](CCCN)C(=O)NCC(=O)N[C@@H](CCc1ccccc1)C(=O)N[C@@H](CC(C)C)C(=O)NNC(=O)c1ccc(N/N=C/c2ccccc2S(=O)(=O)O)nc1
Described as above. Conditions: other: active MMP-2 final concentration 10 nM, 37° C., 60 minutes, radiolabeled test substrate, pH 7.5.

Substrate in data set [3]: CC(=O)N1CCC[C@H]1C(=O)N[C@@H](CC(C)C)C(=O)NCC(=O)N[C@@H](CCc1ccccc1)C(=O)N[C@@H](Cc1ccc(O)cc1)C(=O)N[C@@H](CC(C)C)C(=O)NNC(=O)c1ccc(N/N=C/c2ccccc2S(=O)(=O)ON)nc1
The data set can be described thus: Substrate hydrolysis assay with mouse MMP9. Conditions: other: mouse MMP9; pH 7.5. The procedure:
(§1) The kinetic parameters of substrate hydrolysis were determined using a radio HPLC assay. The turnover of different substrates by active MMP-2 and active MMP-9 was determined using this assay. A stock solution of different test substrates (10 mM) was prepared in 100% DMSO. Stock solutions of the test substrates were diluted 1000 fold (10 nM) in buffer (50 mM Hepes/pH 7.5, 10 mM CaCl2, 0.1% Brij) to give working stock solution. Working stock solution of the test substrate (15 μl) was added to buffer (120 μL) in a test tube and warmed at 37° C. for 2 minutes. To this solution 15 μL of working stock of active MMP-2 (final concentration 10 nM) or active MMP-9 was added (final concentration 2 nM). Finally, 4 μCi of radiolabeled test substrate was added and the solution was mixed and immediately 67.5 µL of the mix was transferred to HPLC vials containing 7.5 μl of 0.5M EDTA for t=0 minute measurement. The rest of the mix in the test tube was incubated at 37° C. for 60 minutes. At the 60 minute time point 67.5 μl of the mix was transferred to the HPLC vial containing 7.5 μL of 0.5 M EDTA for t=60 minute measurement. […] Mobile phase A (MPA) was 25 mM ammonium acetate and mobile phase B (MPB) was 100% acetonitrile. […] The radiolabel was detected by a IN/US beta ram detector. […]

Substrate in data set [4]: CC(=O)N1CCC[C@H]1C(=O)N[C@@H](CCCN)C(=O)NCC(=O)N[C@@H](CCc1ccccc1)C(=O)N[C@@H](CC(C)C)C(=O)NNC(=O)c1ccc(N/N=C/c2ccccc2S(=O)(=O)O)nc1
The data set can be described thus: Substrate hydrolysis assay with mouse MMP9. Particulars: other: mouse MMP9; pH 7.5. The procedure: as §1

A word on the kcat/Km: it is the turnover number divided by the Michaelis constant.

B1: MMP-2 (Homo sapiens) (protein)
chain: YNFFPRKPKWDKNQITYRIIGYTPDLDPETVDDAFARAFQVWSDVTPLRFSRIHDGEADIMINFGRWEHGDGYPFDGKDGLLAHAFAPGTGVGGDSHFDDDELWTLGEGQVVRVKYGNADGEYCKFPFLFNGKEYNSCTDTGRSDGFLWCSTTYNFEKDGKYGFCPHEALFTMGGNAEGQPCKFPFRFQGTSYDSCTTEGRTDGYRWCGTTEDYDRDKKYGFCPETAMSTVGGNSEGAPCVFPFTFLGNKYESCTSAGRSDGKMWCATTANYDDDRKWGFCPDQGYSLFLVAAHEFGHAMGLEHSQDPGALMAPIYTYTKNFRLSQDDIKGIQELYGASPDIDLGTGPTPTLGPVTPEICKQDIVFDGIAQIRGEIFFFKDRFIWRTVTPRDKPMGPLLVATFWPELPEKIDAVYEAPQEEKAVFFAGNEYWIYSASTLERGYPKPLTSLGLPPDVQRVDAAFNWSKNKKTYIFAGDKFWRYNEVKKKMDPGFPKLIADAWNAIPDNLDAVVDLQGGGHSYFFKGAYYLKLENQSLKSVKFGSIKSDWLGC
In the case of B1, the kcat/Km in data set [1] is 63200 M⁻¹ s⁻¹; in data set [2] it was 63700 M⁻¹ s⁻¹.

B2: mouse MMP9 (Mus musculus) (protein)
chain: FQTFKGLKWDHHNITYWIQNYSEDLPRDMIDDAFARAFAVWGEVAPLTFTRVYGPEADIVIQFGVAEHGDGYPFDGKDGLLAHAFPPGAGVQGDAHFDDDELWSLGKGVVIPTYYGNSNGAPCHFPFTFEGRSYSACTTDGRNDGTPWCSTTADYDKDGKFGFCPSERLYTEHGNGEGKPCVFPFIFEGRSYSACTTKGRSDGYRWCATTANYDQDKLYGFCPTRVDATVVGGNSAGELCVFPFVFLGKQYSSCTSDGRRDGRLWCATTSNFDTDKKWGFCPDQGYSLFLVAAHEFGHALGLDHSSVPEALMYPLYSYLEGFPLNKDDIDGIQYLYGRGSKPDPRPPATTTTEPQPTAPPTMCPTIPPTAYPTVGPTVGPTGAPSPGPTSSPSPGPTGAPSPGPTAPPTAGSSEASTESLSPADNPCNVDVFDAIAEIQGALHFFKDGWYWKFLNHRGSPLQGPFLTARTWPALPATLDSAFEDPQTKRVFFFSGRQMWVYTGKTVLGPRSLDKLGLGPEVTHVSGLLPRRLGKALLFSKGRVWRFDLKSQKVDPQSVIRVDKEFSGVPWNSHDIFQYQDKAYFCHGKFFWRVSFQNEVNKVDHEVNQVDDVGYVTYDLLQCP
notes: The turnover of different substrates by active MMP-2 and active MMP-9 was determined using this assay
For the protein B2, the kcat/Km in data set [3] was above 100000 M⁻¹ s⁻¹; in data set [4], 897 M⁻¹ s⁻¹.
